Test [1] deals with baseplate center piece protein (gp114) of phage 7-7-1 (Agrobacterium phage 7-7-1). The test can be described thus: cryo-EM structure; single particle analysis of purified virions; baseplate region, local refinements: baseplate core complex C6 3.4 Å, tail fibers C1 3.5 Å.
In test [2] the target is baseplate central hub protein (gp113) of phage 7-7-1 (Agrobacterium phage 7-7-1). Described as above.
The target of test [3] is baseplate wedge 1 (gp111) of phage 7-7-1 (Agrobacterium phage 7-7-1). The test is described as above.
Test [4] addresses baseplate wedge 2 (gp110) of phage 7-7-1 (Agrobacterium phage 7-7-1). Described as above.
Test [5] addresses central spike protein (gp112) of phage 7-7-1 (Agrobacterium phage 7-7-1). Described as above.
Test [6] has as its target decoration protein (gp002) of phage 7-7-1 (Agrobacterium phage 7-7-1). The test can be described thus: cryo-EM structure; single particle analysis of purified virions in TM buffer (10 mM MgSO4, 20 mM Tris/HCl, pH 7.5); DNA-filled capsid, icosahedral symmetry, 3.4 Å.
The target in test [7] is garland protein (gp014) of phage 7-7-1 (Agrobacterium phage 7-7-1). The experiment in a line: cryo-EM structure; single particle analysis of purified virions; baseplate region, local refinements: baseplate core complex C6 3.4 Å, tail fibers C1 3.5 Å.
Test [8] addresses long tail fiber (gp015) of phage 7-7-1 (Agrobacterium phage 7-7-1). Described as above.
In test [9] the target is major capsid protein (gp003) of phage 7-7-1 (Agrobacterium phage 7-7-1). The test can be described thus: cryo-EM structure; single particle analysis of purified virions in TM buffer (10 mM MgSO4, 20 mM Tris/HCl, pH 7.5); DNA-filled capsid, icosahedral symmetry, 3.4 Å.
For test [10], the target named is neck 1 protein (gp119) of phage 7-7-1 (Agrobacterium phage 7-7-1). The test can be described thus: cryo-EM structure; single particle analysis of purified virions; neck region, local refinements: portal C12 3.2 Å, collar C15 3.3 Å, neck 1 C3 3.5 Å, neck 2 + tail terminator + tail sheath + tail tube C6 3.6 Å.
In test [11] the target is neck 2 protein (gp121) of phage 7-7-1 (Agrobacterium phage 7-7-1). Described as above.
For test [12], the target named is portal protein (gp005) of phage 7-7-1 (Agrobacterium phage 7-7-1). The description is as above.
For test [13], the target named is short tail fiber (gp008) of phage 7-7-1 (Agrobacterium phage 7-7-1). The test can be described thus: cryo-EM structure; single particle analysis of purified virions; baseplate region, local refinements: baseplate core complex C6 3.4 Å, tail fibers C1 3.5 Å.
Test [14] concerns the target tail terminator protein (gp124) of phage 7-7-1 (Agrobacterium phage 7-7-1). The test can be described thus: cryo-EM structure; single particle analysis of purified virions; neck region, local refinements: portal C12 3.2 Å, collar C15 3.3 Å, neck 1 C3 3.5 Å, neck 2 + tail terminator + tail sheath + tail tube C6 3.6 Å.
The target of test [15] is tail tube protein (gp127) of phage 7-7-1 (Agrobacterium phage 7-7-1). The test is described as above.
Test [16] shares this target. The experiment in a line: cryo-EM structure; single particle analysis of purified virions; extended tail, C6 helical refinement, twist 27.35°, rise 35.25 Å, 3.1 Å.

Where “and” joins values, the source holds several entries; their conditions need not be identical. Equal entries are not always repeated.

Drawing on publication PMC12796354, this text covers stoichiometry N for 15 substances.

Broadly, the stoichiometry N is the number of molecules, sites or subunits per partner or assembly. Regarding “baseplate center piece protein (gp114) of phage 7-7-1 (natural protein)”, the stoichiometry N in test [1] came out at 6.
In test [2], “baseplate central hub protein (gp113) of phage 7-7-1 (natural protein)” had a stoichiometry N of 3.
With “baseplate wedge 1 (gp111) of phage 7-7-1 (natural protein)”, the stoichiometry N in [3] worked out at 6.
For “baseplate wedge 2 (gp110) of phage 7-7-1 (natural protein)”, the stoichiometry N in [4] was 2.
In test [5], “central spike protein (gp112) of phage 7-7-1 (natural protein)” had a stoichiometry N of 3.
On to “decoration protein (gp002) of phage 7-7-1 (natural protein)”, for which the stoichiometry N in test [6] amounted to 2.
As for “garland protein (gp014) of phage 7-7-1 (natural protein)”, the stoichiometry N in test [7] stood at 2.
For “long tail fiber (gp015) of phage 7-7-1 (natural protein)”, the stoichiometry N in test [8] stood at 3.
“major capsid protein (gp003) of phage 7-7-1 (natural protein)”: the stoichiometry N in test [9] was 6 and 5.
As to “neck 1 protein (gp119) of phage 7-7-1 (natural protein)”, in [10], the stoichiometry N was determined as 12.
Consider “neck 2 protein (gp121) of phage 7-7-1 (natural protein)”, for which the stoichiometry N in test [11] is 6.
Consider “portal protein (gp005) of phage 7-7-1 (natural protein)”, for which, in test [12], the stoichiometry N is 12.
Regarding “short tail fiber (gp008) of phage 7-7-1 (natural protein)”, the stoichiometry N in test [13] is 3.
Take “tail terminator protein (gp124) of phage 7-7-1 (natural protein)”: the stoichiometry N in test [14] was 6.
As to “tail tube protein (gp127) of phage 7-7-1 (natural protein)”, the stoichiometry N in test [15] and in test [16] was 6 in each case.
